{"source": "patent US20200046641A1", "about": "“LIPOSOMES FOR THE TREATMENT OF OCULAR DISEASES” (TDC Technology Dedicated to Care srl, priority 2018, published 2020)", "molecules": {"B1": {"name": "lactoferrin (protein, UniProt P02788 20-710, looked up)", "Lactotransferrin": "GRRRSVQWCAVSQPEATKCFQWQRNMRKVRGPPVSCIKRDSPIQCIQAIAENRADAVTLDGGFIYEAGLAPYKLRPVAAEVYGTERQPRTHYYAVAVVKKGGSFQLNELQGLKSCHTGLRRTAGWNVPIGTLRPFLNWTGPPEPIEAAVARFFSASCVPGADKGQFPNLCRLCAGTGENKCAFSSQEPYFSYSGAFKCLRDGAGDVAFIRESTVFEDLSDEAERDEYELLCPDNTRKPVDKFKDCHLARVPSHAVVARSVNGKEDAIWNLLRQAQEKFGKDKSPKFQLFGSPSGQKDLLFKDSAIGFSRVPPRIDSGLYLGSGYFTAIQNLRKSEEEVAARRARVVWCAVGEQELRKCNQWSGLSEGSVTCSSASTTEDCIALVLKGEADAMSLDGGYVYTAGKCGLVPVLAENYKSQQSSDPDPNCVDRPVEGYLAVAVVRRSDTSLTWNSVKGKKSCHTAVDRTAGWNIPMGLLFNQTGSCKFDEYFSQSCAPGSDPRSNLCALCIGDEQGENKCVPNSNERYYGYTGAFRCLAENAGDVAFVKDVTVLQNTDGNNNEAWAKDLKLADFALLCLDGKRKPVTEARSCHLAMAPNHAVVSRMDKVERLKQVLLHQQAKFGRNGSDCPDKFCLFQSETKNLLFNDNTECLARLHGKTTYEKYLGPQYVAGITNLKKCSTSPLLEACEFLRK"}}, "tested_on": "inflamed eye of male albino rabbits", "assay": "In vivo treatment of ocular inflammation induced by arachidonic acid sodium salt", "set-up": "species or system rabbit", "details": "50 μl given 30 minutes after 0.5% arachidonic acid sodium salt; scored 30-210 minutes", "procedure": "Inflammation in the eye of male albino rabbits as described in Example 7 is induced by applying a drop of eye drops containing 0.5% arachidonic acid sodium salt (SA-irritating agent) at time 0. After 30 minutes, the sample under examination is administered to the inflamed eye. Finally, the ocular inflammation index is evaluated at different time points. In the present test, the samples under examination were: • I) 50 μl of free lactoferrin (not encapsulated into the lipid bilayer of liposomes) dissolved in PBS (comparative example); • II) 50 μl of F2 liposomes.\nAs positive control (C+-comparative), a rabbit administered with SA at time 0, without any administration after 30 minutes, has been used.\nThe ocular inflammation has been evaluated for each time point at 30, 60, 90, 120, 150, 180 and 210 minutes and the inflammation index has been consequently calculated for each time point according to the tables of the previous Example.", "data": [{"molecule": "B1", "values": [{"measurement": "Treatment of ocular inflammation (ocular inflammation score, FIG. 1)", "value": "not obtained"}]}]}
